For assay [1], the target named is full-length human GLP-1R with an N-terminal FLAG tag (human, UniProt P43220 24-463). Put plainly: cell-based or functional assay.
In assay [2] the target is T1, full-length human GIPR with an N-terminal FLAG tag (human, UniProt P48546 22-466).
T1 sequence (looked up): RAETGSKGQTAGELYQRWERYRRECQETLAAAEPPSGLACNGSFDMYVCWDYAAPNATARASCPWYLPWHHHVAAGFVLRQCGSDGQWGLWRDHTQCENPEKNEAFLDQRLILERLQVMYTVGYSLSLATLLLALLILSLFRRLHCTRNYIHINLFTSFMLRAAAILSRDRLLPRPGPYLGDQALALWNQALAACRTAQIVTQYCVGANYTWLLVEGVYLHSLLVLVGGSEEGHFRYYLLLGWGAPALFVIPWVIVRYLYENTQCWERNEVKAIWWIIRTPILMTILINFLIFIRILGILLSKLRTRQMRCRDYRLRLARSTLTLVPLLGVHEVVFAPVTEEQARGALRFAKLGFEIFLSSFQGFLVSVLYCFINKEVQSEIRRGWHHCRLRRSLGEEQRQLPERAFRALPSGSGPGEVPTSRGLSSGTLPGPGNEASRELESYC
Nature of the assay: cell-based or functional assay.

Starred links: 1 amine or outer side, 2 acyl side, 3 side chain; linkers in the order of their positions; H or OH if unused. Non-standard residues stand in square brackets, D forms with d. Groups on a side chain read outwards from the residue. No end group written: not given here. *: point of attachment. C16 diacid = O=C(O)CCCCCCCCCCCCCCC(=O)*; C15 diacid = O=C(O)CCCCCCCCCCCCCC(=O)*; γGlu = O=C(O)[C@H](CCC(=O)[*:2])N[*:1]; NMeY = CN[C@@H](Cc1ccc(O)cc1)C(=O)O; AEEA = NCCOCCOCC(=O)O; Aib = CC(C)(N)C(=O)O

On to Me-Y[Aib]EGTFISDYSIAKDR[Aib]AQ[Aib]NFVNWLLAQRPSSGAPPPS-OH (not fully specified (residues 1, 14)) [Compound 147], for which the “Human GLP1R cAMP HEK293T EC50” value in assay [1] came out at 16.6 nM. For the same molecule, the “Human GIPR cAMP, HEK293T EC50” value in assay [2] came to 0.0011 nM.

As for Me-Y[Aib]EGTFISDYSIAKDR[Aib]AQ[Aib]DFVNWLLAQSPSSGAPPPS-OH (not fully specified (residues 1, 14)) [Compound 155], the “Human GLP1R cAMP HEK293T EC50” value in assay [1] was determined as 295 nM. The “Human GIPR cAMP, HEK293T EC50” value in assay [2] was 0.0003 nM.

With Me-Y[Aib]EGTFISDYSIAKDR[Aib]AQ[Aib]DFVNWLLAQSPSSGAPPPG-OH (not fully specified (residues 1, 14)) [Compound 152], the “Human GLP1R cAMP HEK293T EC50” value in assay [1] is 302 nM. Besides, in assay [2], the “Human GIPR cAMP, HEK293T EC50” value was determined as 0.0003 nM.

Consider Me-Y[Aib]EGTFISDYSIAKDR[Aib]AQ[Aib]NFVNWLLAQSPSSGAPPPS-OH (not fully specified (residues 1, 14)) [Compound 150], for which the “Human GLP1R cAMP HEK293T EC50” value in assay [1] came out at 30.2 nM. Moreover, the “Human GIPR cAMP, HEK293T EC50” value in assay [2] is 0.0003 nM.

As for Me-Y[Aib]EGTFISDYSIAK([AEEA-γGlu-γGlu-γGlu-C15 diacid])DR[Aib]AQ[Aib]NFVNWLLAQK-NH2 [Compound 23], the “Human GLP1R cAMP HEK293T EC50” value in assay [1] is 363 nM. In addition, in assay [2], the “Human GIPR cAMP, HEK293T EC50” value turned out to be 0.0004 nM.

Regarding Me-Y[Aib]EGTFISDYSIAKDR[Aib]AQ[Aib]DFVNWLLAQRPSSGAPPPS-OH (not fully specified (residues 1, 14)) [Compound 146], the “Human GLP1R cAMP HEK293T EC50” value in assay [1] came out at 112 nM. The “Human GIPR cAMP, HEK293T EC50” value in assay [2] stood at 0.0005 nM.

Consider [NMeY][Aib]EGTFISDYSI[Aib]LDRK([AEEA-AEEA-γGlu-γGlu-C16 diacid])AQ[Aib]NFVNWLLAQRPSSGAPPPS-NH2 [Compound 145], for which, in assay [1], the “Human GLP1R cAMP HEK293T EC50” value came to 912 nM. Besides, the “Human GIPR cAMP, HEK293T EC50” value in assay [2] was 0.0004 nM.

With Me-Y[Aib]EGTFISDYSIALDR[Aib]AQ[Aib]K([AEEA-γGlu-γGlu-γGlu-C15 diacid])FVNWLLAQK-NH2 [Compound 24], the “Human GLP1R cAMP HEK293T EC50” value in assay [1] was found to be 16.9 nM. For the same molecule, the “Human GIPR cAMP, HEK293T EC50” value in assay [2] was found to be 0.0004 nM.

As for Me-Y[Aib]EGTFISDYSI[Aib]KDR[Aib]AQ[Aib]DFVNWLLAQSPSSGAPPPS-OH (not fully specified (residues 1, 14)) [Compound 156], in assay [1], the “Human GLP1R cAMP HEK293T EC50” value amounted to 89.1 nM. For the same molecule, the “Human GIPR cAMP, HEK293T EC50” value in assay [2] was 0.0002 nM.

B1: Compound 26 (peptide)
peptide: [NMeY][Aib]EGTFISDYSIAK([AEEA-AEEA-γGlu-γGlu-C15 diacid])DR[Aib]AQ[Aib]NFVNWLLAQK-OH
modifications: N-terminus assumed
SMILES: CC[C@H](C)[C@H](NC(=O)[C@H](CO)NC(=O)[C@H](Cc1ccc(O)cc1)NC(=O)[C@H](CC(=O)O)NC(=O)[C@H](CO)NC(=O)[C@@H](NC(=O)[C@H](Cc1ccccc1)NC(=O)[C@@H](NC(=O)CNC(=O)[C@H](CCC(=O)O)NC(=O)C(C)(C)NC(=O)[C@H](Cc1ccc(O)cc1)NC)[C@@H](C)O)[C@@H](C)CC)C(=O)N[C@@H](C)C(=O)N[C@@H](CCCCNC(=O)COCCOCCNC(=O)COCCOCCNC(=O)CC[C@H](NC(=O)CC[C@H](NC(=O)CCCCCCCCCCCCCC(=O)O)C(=O)O)C(=O)O)C(=O)N[C@@H](CC(=O)O)C(=O)N[C@@H](CCCNC(=N)N)C(=O)NC(C)(C)C(=O)N[C@@H](C)C(=O)N[C@@H](CCC(N)=O)C(=O)NC(C)(C)C(=O)N[C@@H](CC(N)=O)C(=O)N[C@@H](Cc1ccccc1)C(=O)N[C@H](C(=O)N[C@@H](CC(N)=O)C(=O)N[C@@H](Cc1c[nH]c2ccccc12)C(=O)N[C@@H](CC(C)C)C(=O)N[C@@H](CC(C)C)C(=O)N[C@@H](C)C(=O)N[C@@H](CCC(N)=O)C(=O)N[C@@H](CCCCN)C(=O)O)C(C)C
B1: in assay [1], the “Human GLP1R cAMP HEK293T EC50” value stood at 1000 nM. For the same molecule, in assay [2], the “Human GIPR cAMP, HEK293T EC50” value was 0.0003 nM.

With Me-Y[Aib]EGTFISDYSIAKDS[Aib]AQ[Aib]NFVNWLLAQSPSSGAPPPS-NH2 (not fully specified (residues 1, 14)) [Compound 154], the “Human GLP1R cAMP HEK293T EC50” value in assay [1] was 288 nM. Further, the “Human GIPR cAMP, HEK293T EC50” value in assay [2] was found to be 0.0003 nM.

Turning to Me-Y[Aib]EGTFISDYSI[Aib]KDR[Aib]AQ[Aib]DFVNWLLAQSG-OH (not fully specified (residues 1, 14)) [Compound 141], the “Human GLP1R cAMP HEK293T EC50” value in assay [1] is 64.6 nM. Also, the “Human GIPR cAMP, HEK293T EC50” value in assay [2] came to 0.0003 nM.

Take Me-Y[Aib]EGTFISDYSIAK([2OEG-γGlu-γGlu-C15 diacid])DR[Aib]AQ[Aib]NFVNWLLAQK-NH2 [Compound 22]: the “Human GLP1R cAMP HEK293T EC50” value in assay [1] is 631 nM. The “Human GIPR cAMP, HEK293T EC50” value in assay [2] is 0.0003 nM.

Consider Me-Y[Aib]EGTFISDYSIAKDR[Aib]AQ[Aib]DFVNWLLAQSPSSGAPPPS-NH2 (not fully specified (residues 1, 14)) [Compound 151], for which the “Human GLP1R cAMP HEK293T EC50” value in assay [1] is 145 nM. In assay [2], the “Human GIPR cAMP, HEK293T EC50” value amounted to 0.0004 nM.

With Me-Y[Aib]EGTFISDYSIAK([AEEA-AEEA-γGlu-γGlu-C15 diacid])DR[Aib]AQ[Aib]NFVNWLLAQS (not fully specified (residue 1)) [Compound 16], in assay [1], the “Human GLP1R cAMP HEK293T EC50” value was found to be 263 nM. Further, the “Human GIPR cAMP, HEK293T EC50” value in assay [2] amounted to 0.0003 nM.

Consider [NMeY][Aib]EGTFISDYSIALDR[Aib]AQ[Aib]K([AEEA-AEEA-γGlu-γGlu-C15 diacid])FVNWLLAQR (not fully specified (N-terminus, C-terminus)) [Compound 15], for which the “Human GLP1R cAMP HEK293T EC50” value in assay [1] amounted to 155 nM. For the same molecule, the “Human GIPR cAMP, HEK293T EC50” value in assay [2] was 0.0003 nM.

With Me-Y[Aib]EGTFISDYSIAKDS[Aib]AQ[Aib]DFVNWLLAQRPSSGAPPPS-NH2 (not fully specified (residues 1, 14)) [Compound 153], the “Human GLP1R cAMP HEK293T EC50” value in assay [1] was found to be 389 nM. Further, the “Human GIPR cAMP, HEK293T EC50” value in assay [2] amounted to 0.0002 nM.

Take Me-Y[Aib]EGTFISDYSIALDR[Aib]AQ[Aib]K([AEEA-AEEA-γGlu-γGlu-C15 diacid])FVNWLLAQSG-OH [Compound 149]: the “Human GLP1R cAMP HEK293T EC50” value in assay [1] amounted to 25.7 nM. In assay [2], the “Human GIPR cAMP, HEK293T EC50” value is 0.0007 nM.

For the molecule Me-Y[Aib]EGTFISDYSIAK([γGlu-γGlu-γGlu-C15 diacid])DR[Aib]AQ[Aib]NFVNWLLAQSPSSGAPPPS-NH2 [Compound 18], the “Human GLP1R cAMP HEK293T EC50” value in assay [1] was determined as 1000 nM. Besides, the “Human GIPR cAMP, HEK293T EC50” value in assay [2] was found to be 0.0002 nM.
